Earlier results in publication PMC3720600.

Molecular target: Cys145 (UniProt position 145, PILIPCHRVVC)

For “O6-methylguanine-DNA methyltransferase (MGMT; O6-alkylguanine-DNA alkyltransferase, AGT) (Homo sapiens)”, the pKa is listed as 4.8.
